Key:
[1] = target: human insulin receptor (IR), CHO cell line overexpressing human IR (pAkt assay) (human) (UniProt P06213); assay: cell-based or functional assay
[2] = target: minipig insulin receptor (IR) (minipig); assay: cell-based or functional assay

Insulin Receptor pAK Assay EC50, Human [1] [nM] | Insulin Receptor pAK Assay EC50, Minipig [2] [nM] | Substance
0.48 |  | Insulin degludec (ligand)
0.51 | 0.5 | Insulin levemir (ligand)

From US20190175744A1, “INSULIN-INCRETIN CONJUGATES” (Merck Sharp & Dohme Corp., priority 2016, published 2019)
